T1: cynomolgus CD40-his protein (Biosion in house made) (cynomolgus, UniProt P25942 21-191 (human entry), limits assumed)
T1 construct: also called Cyno CD40-his
T1 chain: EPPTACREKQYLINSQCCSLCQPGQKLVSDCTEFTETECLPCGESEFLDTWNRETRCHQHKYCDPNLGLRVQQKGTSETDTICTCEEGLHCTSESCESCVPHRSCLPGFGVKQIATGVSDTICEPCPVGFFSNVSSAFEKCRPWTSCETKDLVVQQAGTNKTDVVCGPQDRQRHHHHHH


Assays:
[1] = molecular target: T2, biotin-labeled human CD47-Fc (Biosion in house made) (human, biotin-labeled (sites not given)); assay: competitive ELISA: binder premixed with biotin-labeled human CD47-Fc, blocked partner coated human CD172a-Fc, OD(450-630)
T2 construct: also called Human CD47-Fc protein
Description: The ability of the recombinant fusion proteins of the disclosure to block CD47-CD172a binding was measured in a competitive ELISA assay. Briefly, 100 μl/well human CD172a-Fc proteins (prepared in-house with amino acid sequence of SEQ ID NO: 24) were coated on 96-well micro plates at 2 μg/mL in coating buffer (carbonate/bicarbonate buffer) and incubated overnight at 4° C. The next day, the plates were washed once with wash buffer (PBS+0.05% v/v Tween-20, PBST), and then blocked with 5% w/v non-fatty milk in PBST for 2 hours at 37° C. The plates were then washed 4 times using wash buffer.
Serially diluted recombinant fusion proteins of the disclosure or controls (starting at 100 nM with a 5-fold serial dilution) were mixed with 20 ng/ml biotin-labeled human CD47-Fc (Biosion in house made, SEQ ID NO: 23) in PBST with 2.5% w/v non-fatty milk. The mixtures were incubated at 37° C. for 40 minutes, and respectively added to the CD172a-Fc bound plates, 100 μl per well. The plates were incubated at 37° C. for 40 minutes, washed 4 times using wash buffer, added with 100 μl/well streptavidin conjugated HRP (1:10000 dilution in PBST buffer, Cat #: 016-030-084, Jackson ImmunoResearch), incubated for 40 minutes at 37° C., and washed again using wash buffer. […] The plates were read on a microplate reader using the dual wavelength mode with 450 nm for TMB and 630 nm as the reference wavelength, and the OD (450-630) values were plotted against the recombinant fusion protein or controls concentration. Data was analyzed using Graphpad Prism and IC₅₀ values were reported. Wild-type SIRPαV2D1-Fc (IgG2) (SEQ ID NO: 21, X1=V, X2=K, X3=S, X4=K, X5=F) was used as a positive control.

[2] = molecular target: human CD40-Fc protein (Cat #: CD0-H5253, ACRO Biosystems) (human, UniProt P25942 21-193); assay: dual-binding ELISA: human CD40-Fc coated, binder titrated, detected with human CD47-his and anti-His-HRP, OD450
Description: The binding activity of the recombinant fusion proteins to human CD40 and CD47 was also tested by dual-binding ELISA assay. Briefly, 100 μl/well human CD40-Fc proteins (Cat #: CD0-H5253, ACRO Biosystems) were coated on 96-well plates at 0.2 μg/mL in PBS and incubated overnight at 2-8° C. The next day, the plates were washed 3 times using wash buffer (PBS+0.05% v/v Tween-20, PBST), and then blocked with block buffer (PBS+1% w/v BSA) for 3 hours at 37° C. The plates were then washed 3 times using the wash buffer.
Serially diluted recombinant fusion proteins of the disclosure or controls (starting at 100 nM with a 6-fold serial dilution) in block buffer were added to the CD40-Fc bound plates, 100 μL per well, and incubated at 37° C. for 1 hour. The plates were washed 3 times using wash buffer, and then added and incubated for 1 hour at 37° C. with 100 μl/well 3 μg/mL human CD47-his protein (Cat #: CD7-H5227, ACRO Biosystems). The plates were washed again using wash buffer, added with 100 μl/well Anti-His tag Antibody (HRP) (1:2000 dilution in block buffer, Cat #: 105327-MM02T-H, Sino Biological) and incubated for 1 hour at 37° C. The plates were washed again using wash buffer. […] The absorbance was read using a microplate reader set to 450 nm, then the OD (450) values were plotted against the recombinant fusion protein or controls concentration. Data was analyzed using Graphpad Prism and EC₅₀ values were reported.

[3] = molecular target: T1, cynomolgus CD40-his protein (Biosion in …); assay: SPR (Biacore T200), sample on Protein A chip, antigen-his analyte, 1:1 fit
Text: (§1) The purified recombinant fusion proteins were characterized for their binding affinity and binding kinetics by Biacore T200 system (GE healthcare, Pittsburgh, PA, USA). The anti-CD40 antibody HuCD40-C1H1-V2 (having the heavy chain and the light chain of SEQ ID NOs: 19 and 20), Selicrelumab (an agonistic anti-CD40 antibody, Roche Inc., prepared in-house with heavy and light chains of SEQ ID NOs: 27 and 28), and SIRPα-Fc fusion proteins, including SIRPαV2D1M1-Fc (IgG2) (SEQ ID NO: 21, X1=I, X2=R, X3=T, X4=K, X5=F), SIRPαV2D1M2-Fc (IgG2) (SEQ ID NO: 21, X1=I, X2=R, X3=T, X4=R, X5=V), SIRPα-isoform2-Fc (SEQ ID NO: 25) were used as positive controls.
(§2) A Protein A chip (Cat #: 29-1275-56, GE healthcare) was used for affinity determination. The recombinant fusion proteins of the disclosure and the positive controls each at the concentration of 2 μg/ml were respectively flowed onto the chip at a flow rate of 10 μl/min. Then, serially diluted recombinant human CD40-his proteins (Cat #: CD0-H5228, Acro biosystems), human CD47-his proteins (Cat #: CD7-H5227, Acro biosystems), cynomolgus CD40-his proteins (Biosion in house made, SEQ ID NO: 29) or cynomolgus CD47-his proteins (Cat #: CD7-C52H1, Acro biosystems), 2-fold dilution in HBS-EP⁺ buffer (provided by Biacore) with a starting concentration of 200 nM, were flowed onto the chip at a flow rate of 30 μl/min. The association kinetics was followed for 2 minutes and the dissociation kinetics was followed for 10 minutes. The association and dissociation curves were fit to a 1:1 Langmuir binding model using the Biacore evaluation software.

[4] = molecular target: T3, recombinant human CD40-his protein (Cat #: CD0-H5228, Acro biosystems) (human, UniProt P25942 21-193); assay: as above
T3 construct: Bought protein
Text: as §1, §2

[5] = molecular target: T4, cynomolgus CD47-his protein (Cat #: CD7-C52H1, Acro biosystems) (cynomolgus, UniProt A0A2K5X523 19-139); assay: as above
T4 construct: Bought protein; also called Cyno CD47-his
Text: as §1, §2

[6] = molecular target: T5, human CD47-his protein (Cat #: CD7-H5227, Acro biosystems) (human, UniProt Q08722 19-139); assay: as above
T5 construct: Bought protein
Text: as §1, §2

T5 sequence (Q08722 19-139 limits assumed): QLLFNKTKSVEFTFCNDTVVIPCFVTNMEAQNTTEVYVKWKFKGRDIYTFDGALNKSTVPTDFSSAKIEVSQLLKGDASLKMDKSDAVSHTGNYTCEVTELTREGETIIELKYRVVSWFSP

| IC50 [1] [nM] | EC50 [2] [nM] | Kd [3] [nM] | koff [3] [s⁻¹] | kon [3] [M⁻¹ s⁻¹] | Kd [4] [nM] | koff [4] [s⁻¹] | kon [4] [M⁻¹ s⁻¹] | Kd [5] [nM] | koff [5] [s⁻¹] | kon [5] [M⁻¹ s⁻¹] | Kd [6] [nM] | koff [6] [s⁻¹] | kon [6] [M⁻¹ s⁻¹] | Binder |
| --- | --- | --- | --- | --- | --- | --- | --- | --- | --- | --- | --- | --- | --- | --- |
| 2.74 | 0.213 | 2.16 | 0.00163 | 753000 | 0.937 | 0.00164 | 1.75e+06 | 6.08 | 0.000576 | 94800 | 0.987 | 0.000586 | 594000 | BSI038×S-004 (bispecific antibody, human IgG2, kappa, SIRPαV2D1 variant M1 linked to N-terminus of each heavy chain of HuCD40-C1H1-V2 (human IgG2)) heavy: EEELQVIQPDKSVSVAAGESAILHCTITSLIPVGPIQWFRGAGPARELIYNQREGHFPRVTTVSETTKRENMDFSISISNITPADAGTYYCVKFRKGSPDTEFKSGAGTELSVRAKPSAPVVSGPAARATPGGGGSGGGGSEVQLVESGGGLVKPGGSLRLSCAASGFTFSNYGISWVRQAPGKGLEWVSSISSGGDNTYYPDNVKGRFTISRDNAKNSLYLQMNSLRAEDTAVYYCARAGEKAMDYWGQGTLVTVSSASTKGPSVFPLAPCSRSTSESTAALGCLVKDYFPEPVTVSWNSGALTSGVHTFPAVLQSSGLYSLSSVVTVPSSNFGTQTYTCNVDHKPSNTKVDKTVERKCCVECPPCPAPPVAGPSVFLFPPKPKDTLMISRTPEVTCVVVDVSHEDPEVQFNWYVDGVEVHNAKTKPREEQFNSTFRVVSVLTVVHQDWLNGKEYKCKVSNKGLPAPIEKTISKTKGQPREPQVYTLPPSREEMTKNQVSLTCLVKGFYPSDIAVEWESNGQPENNYKTTPPMLDSDGSFFLYSKLTVDKSRWQQGNVFSCSVMHEALHNHYTQKSLSLSPGK light: EIVLTQSPATLSLSPGERATLSCRASQTINNNLHWYQQKPGQAPRLLIKYASQSISGIPARFSGSGSGTDFTLTISSLEPEDFAVYFCQQFSSWPLTFGGGTKVEIKRTVAAPSVFIFPPSDEQLKSGTASVVCLLNNFYPREAKVQWKVDNALQSGNSQESVTEQDSKDSTYSLSSTLTLSKADYEKHKVYACEVTHQGLSSPVTKSFNRGEC |
| 2.5 | 0.197 | 2.2 | 0.00167 | 759000 | 0.935 | 0.00165 | 1.77e+06 | 5.39 | 0.000495 | 91800 | 1.15 | 0.000598 | 518000 | BSI038×S-005 (bispecific antibody, human IgG2, kappa, SIRPαV2D1 variant M2 linked to N-terminus of each heavy chain of HuCD40-C1H1-V2 (human IgG2)) heavy: EEELQVIQPDKSVSVAAGESAILHCTITSLIPVGPIQWFRGAGPARELIYNQREGHFPRVTTVSETTRRENMDFSISISNITPADAGTYYCVKFRKGSPDTEVKSGAGTELSVRAKPSAPVVSGPAARATPGGGGSGGGGSEVQLVESGGGLVKPGGSLRLSCAASGFTFSNYGISWVRQAPGKGLEWVSSISSGGDNTYYPDNVKGRFTISRDNAKNSLYLQMNSLRAEDTAVYYCARAGEKAMDYWGQGTLVTVSSASTKGPSVFPLAPCSRSTSESTAALGCLVKDYFPEPVTVSWNSGALTSGVHTFPAVLQSSGLYSLSSVVTVPSSNFGTQTYTCNVDHKPSNTKVDKTVERKCCVECPPCPAPPVAGPSVFLFPPKPKDTLMISRTPEVTCVVVDVSHEDPEVQFNWYVDGVEVHNAKTKPREEQFNSTFRVVSVLTVVHQDWLNGKEYKCKVSNKGLPAPIEKTISKTKGQPREPQVYTLPPSREEMTKNQVSLTCLVKGFYPSDIAVEWESNGQPENNYKTTPPMLDSDGSFFLYSKLTVDKSRWQQGNVFSCSVMHEALHNHYTQKSLSLSPGK light: EIVLTQSPATLSLSPGERATLSCRASQTINNNLHWYQQKPGQAPRLLIKYASQSISGIPARFSGSGSGTDFTLTISSLEPEDFAVYFCQQFSSWPLTFGGGTKVEIKRTVAAPSVFIFPPSDEQLKSGTASVVCLLNNFYPREAKVQWKVDNALQSGNSQESVTEQDSKDSTYSLSSTLTLSKADYEKHKVYACEVTHQGLSSPVTKSFNRGEC |
